{"source": "patent US20020111475A1", "biological_target": "flt3 on murine WWF7 cells", "test": "cell-based or functional assay", "data": [{"substance": "flt3-L mutant L26F (from UniProt P49771 24-235) (ligand)", "values": [{"measurement": "Sp.Ac. MUT / Sp.Ac. WT (WWF7 cell proliferation units/ml per flt3-L ng/ml by ELISA, yeast supernatant) (ratio to wild type)", "value": 0.69}]}, {"substance": "flt3-L mutant I11Y (from UniProt P49771 24-179) (ligand)", "values": [{"measurement": "Sp.Ac. MUT / Sp.Ac. WT (WWF7 cell proliferation units/ml per flt3-L ng/ml by ELISA, yeast supernatant) (ratio to wild type)", "value": 0}]}, {"substance": "flt3-L mutant Q122R (from UniProt P49771 24-179) (ligand)", "values": [{"measurement": "Sp.Ac. MUT / Sp.Ac. WT (WWF7 cell proliferation units/ml per flt3-L ng/ml by ELISA, yeast supernatant) (ratio to wild type)", "value": 2.16}]}, {"substance": "flt3-L mutant K116E (from UniProt P49771 24-179) (ligand)", "values": [{"measurement": "Sp.Ac. MUT / Sp.Ac. WT (WWF7 cell proliferation units/ml per flt3-L ng/ml by ELISA, yeast supernatant) (ratio to wild type)", "value": 0.02}]}, {"substance": "flt3-L mutant W118R (from UniProt P49771 24-179) (ligand)", "values": [{"measurement": "Sp.Ac. MUT / Sp.Ac. WT (WWF7 cell proliferation units/ml per flt3-L ng/ml by ELISA, yeast supernatant) (ratio to wild type)", "value": 2.19}]}, {"substance": "wild type flt3-L (yeast-derived recombinant human flt3 Ligand) (from UniProt P49771 24-179)", "values": [{"measurement": "Sp.Ac. MUT / Sp.Ac. WT (WWF7 cell proliferation units/ml per flt3-L ng/ml by ELISA, yeast supernatant) (ratio to wild type)", "value": 1}, {"measurement": "specific activity of WT protein (WWF7 cell proliferation, yeast supernatant), averaged over 11 independent assays", "value": 0.95, "unit": "units/ng"}]}, {"substance": "flt3-L mutant L27P (from UniProt P49771 24-179) (ligand)", "values": [{"measurement": "Sp.Ac. MUT / Sp.Ac. WT (WWF7 cell proliferation units/ml per flt3-L ng/ml by ELISA, yeast supernatant) (ratio to wild type)", "value": 0.07}]}, {"substance": "flt3-L mutant F81S (from UniProt P49771 24-179) (ligand)", "values": [{"measurement": "Sp.Ac. MUT / Sp.Ac. WT (WWF7 cell proliferation units/ml per flt3-L ng/ml by ELISA, yeast supernatant) (ratio to wild type)", "value": 0}]}, {"substance": "flt3-L mutant K84T (from UniProt P49771 24-235) (ligand)", "values": [{"measurement": "Sp.Ac. MUT / Sp.Ac. WT (WWF7 cell proliferation units/ml per flt3-L ng/ml by ELISA, yeast supernatant) (ratio to wild type)", "value": 1.63}]}, {"substance": "flt3-L mutant V34L (from UniProt P49771 24-235) (ligand)", "values": [{"measurement": "Sp.Ac. MUT / Sp.Ac. WT (WWF7 cell proliferation units/ml per flt3-L ng/ml by ELISA, yeast supernatant) (ratio to wild type)", "value": 0.58}]}, {"substance": "flt3-L mutant K84E (from UniProt P49771 24-179) (ligand)", "values": [{"measurement": "Sp.Ac. MUT / Sp.Ac. WT (WWF7 cell proliferation units/ml per flt3-L ng/ml by ELISA, yeast supernatant) (ratio to wild type)", "value": 2.88}]}, {"substance": "flt3-L mutant H8Y (from UniProt P49771 24-179) (ligand)", "values": [{"measurement": "Sp.Ac. MUT / Sp.Ac. WT (WWF7 cell proliferation units/ml per flt3-L ng/ml by ELISA, yeast supernatant) (ratio to wild type)", "value": 1.71}]}, {"substance": "flt3-L mutant H8R (from UniProt P49771 24-179) (ligand)", "values": [{"measurement": "Sp.Ac. MUT / Sp.Ac. WT (WWF7 cell proliferation units/ml per flt3-L ng/ml by ELISA, yeast supernatant) (ratio to wild type)", "value": 0}]}]}
